According to article PMC5019495 (Nature, 2016):
Numbering of substitutions follows the chain as printed. Numbers in names are those of the source. Like-named read-outs stand apart in the source and are kept apart here. Values belong to the binder of their own block, whether it stands above or below them.

Experiments:
[1] = target: T1, yeast E2 Ubc9 (wild type) (yeast, UniProt P50623 1-157); test: fluorescence polarisation
T1 sequence (looked up): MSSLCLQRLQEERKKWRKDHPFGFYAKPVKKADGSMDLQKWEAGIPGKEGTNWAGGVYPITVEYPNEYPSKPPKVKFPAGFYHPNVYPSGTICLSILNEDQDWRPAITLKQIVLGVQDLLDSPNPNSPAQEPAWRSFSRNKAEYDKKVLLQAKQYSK

[2] = target: T2, yeast E3 active fragment Siz1^(167–465) (yeast, UniProt Q04195 167-465); test: competitive inhibition of multiple turnover SUMO conjugation
T2 sequence (looked up): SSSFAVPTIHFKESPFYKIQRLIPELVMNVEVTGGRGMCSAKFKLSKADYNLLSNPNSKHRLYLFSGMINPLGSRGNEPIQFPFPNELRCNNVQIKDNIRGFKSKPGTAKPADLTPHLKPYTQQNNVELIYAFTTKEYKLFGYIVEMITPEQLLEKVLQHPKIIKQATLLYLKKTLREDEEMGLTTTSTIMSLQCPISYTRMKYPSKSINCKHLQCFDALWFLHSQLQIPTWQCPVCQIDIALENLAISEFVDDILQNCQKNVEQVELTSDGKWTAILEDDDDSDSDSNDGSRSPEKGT

[3] = target: T2, yeast E3 active fragment Siz1^(167–465); test: as above; remark: listed apart in the source

- Kd [1]: 0.0246 µM
B1: Smt3^K11C-Alexa488 (natural protein)
chain: SDSEVNQEACPEVKPEVKPETHINLKVSDGSSEIFFKIKKTTPLRRLMEAFAKRQGKEMDSLRFLYDGIRIQADQTPEDLDMEDNDIIEAHREQIGG
modifications: Alexa Fluor 488 maleimide on Cys11

- Ki [2]: 2.05 µM
- Ki [3]: 1.44 µM
B2: Ubc9^C93K-Smt3 thioester mimetic (complex)
chain 1: T1 sequence (looked up) with C93K
chain 2: B1 chain with C10K
modifications: Lys93 linked to the C-terminus of Smt3 (stable peptide bond) | C-terminus linked to Lys93 of Ubc9

- Ki [2]: 4.33 µM
- Ki [3]: 3.15 µM
B3: Ubc9^A129K/K153R-Smt3 thioester mimetic (complex)
chain 1: T1 sequence (looked up) with A129K, K153R
chain 2: B1 chain with C10K
modifications: Lys129 linked to the C-terminus of Smt3 | C-terminus linked to Lys129 of Ubc9
